Data taken from article PMC3097237, “Exploiting Nucleotide Composition to Engineer Promoters”.

Legend:
[1] = molecular target: T1, TFIIB (UniProt Q00403); experiment: BLI; conditions: BLI (ForteBio Octet QK), streptavidin sensors loaded with biotinylated DNA 25 ug/ml, 1x Kinetics Buffer (ForteBio); salt, pH and temperature not stated
T1 sequence: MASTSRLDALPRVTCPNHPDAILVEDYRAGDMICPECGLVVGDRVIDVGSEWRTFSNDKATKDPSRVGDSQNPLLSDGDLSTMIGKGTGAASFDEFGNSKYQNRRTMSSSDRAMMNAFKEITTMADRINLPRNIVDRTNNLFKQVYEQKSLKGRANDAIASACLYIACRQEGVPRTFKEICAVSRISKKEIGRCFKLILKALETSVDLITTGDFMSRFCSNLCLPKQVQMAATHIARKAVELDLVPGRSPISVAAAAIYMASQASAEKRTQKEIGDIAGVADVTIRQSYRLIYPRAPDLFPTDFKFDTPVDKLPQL

[2] = molecular target: TFIIB (UniProt Q00403 1-316); experiment: BLI; kon 3.03E+04 1/Ms; koff 1.93E-03 1/s; 270 nM TFIIB; BLI (ForteBio Octet QK), streptavidin sensors loaded with biotinylated DNA 25 ug/ml, 1x Kinetics Buffer (ForteBio); salt, pH and temperature not stated; conditions: protein: commercial; label: 5' biotin (one strand, PCR primer)

“TCGACGCGCGTATAACACGCGAGCGGTTCGAACGTTGGCGCGCTAACGCGAGTCGTACGCCCGTCAACGCGGATCAATCGCGCGACTTGTGCGCGACGTTAGACCGCCGATCGTCAAGCGCCGATCGGTAATCGGACGATTCGGATACGCGAGTTCGGACGTACGAGCGTGATACGGCGCGTAACGGTGCGCGTTAAAACGCCGACGCGTCATAACCGCGACTCGTCGACGC (double strand) [ArS232]” gave a Kd [1] of 84.5 nM.

Work on “AACGGTGCGCGTTAAAACGCCGACGCGTCATAACCGCGACTCGTCGACGCAGCGCCGGCGTATAAGCGCGCCGTACGTCAACCGTCGACGTTAGTCCGACGATCGCGGCGTCTATACGCCGCGTCAATCGCGCGCGGTTCAACGTCGCGCTACGGGCGCGTATAAGTCGCGCGGTTAATACGCGCGGTGTACGCGGATGCCGGGGTCGCGTATAATCGGCGCGTATACCTCGCGCGTATACGCGGCGTATTACGGCCGCGTATAATTCGCGCGTATGGACCGCGTACGTCCTACGAGCGT (double strand) [ArS300]” yielded a Kd [1] of 64.6 nM.

For “AACGGTGCGCGTTAAAACGGCCGACGCGTCATAACCGCGACTCGTCGACGCAGCGCCGGCGTATAAGCGCGCCGTACGTCAACCGTCGACGTTAGTCCGACGATCGCGGCGTCTATACGCCGCGTCAATCGCGCGCGGTTCAACGTCGCGCTACGGGCGCGTATAAGTCGCGCGTATGGACCGCGTACGTCCTACGAGCGT (double strand) [ArS201]”, the Kd [1] was 77.6 nM.

B1: ArS110 (dsDNA)
DNA 1: CTACGCCGCGTAAATATCGCGCGCTAACGGTGCGCGTTAAAACGCCGACGCGTCATAAAGCGCCGGCGTATAAGCGCGCCGTACGTCGTCGAACCACGTTAGTCCGGACC
DNA 2: GGTCCGGACTAACGTGGTTCGACGACGTACGGCGCGCTTATACGCCGGCGCTTTATGACGCGTCGGCGTTTTAACGCGCACCGTTAGCGCGCGATATTTACGCGGCGTAG
For B1, the Kd [2] was 63.7 nM.
